Reference: patent US20030099656A1 (published 2003)

Legend:
[1] = biological target: T1, ClfA on S. aureus strain 4046 USA cells (Staphylococcus aureus strain 4046); experiment: flow cytometry, 3 hr culture
T1 construct: whole, on cells
Method: (§1) As well, Newman ClfA::emr (ClfA knockout) and NewmanSpa::kan (Protein A knockout) were analyzed in the same manner as specificity controls. Following incubation with antibody, bacterial cells were incubated with Goat-F_{(ab′)2}-Anti-Mouse-F_{(ab′)2}-FITC which served as the detection antibody. […] For each bacterial strain, 10,000 events were collected and measured.

[2] = biological target: T2, ClfA on S. aureus strain 203 SAL2 cells (Staphylococcus aureus strain 203 Sal 2); experiment: flow cytometry, 3 hr culture
T2 construct: whole, on cells
Method: as §1

[3] = biological target: T3, ClfA on S. aureus strain 560 SAL 1 cells (Staphylococcus aureus strain 560 Sal 1); experiment: flow cytometry, 3 hr culture
T3 construct: whole, on cells
Method: as §1

[4] = biological target: T4, ClfA on S. aureus strain 203 Singapore cells (Staphylococcus aureus strain 203); experiment: flow cytometry, 3 hr culture
T4 construct: whole, on cells
Method: as §1

[5] = biological target: T5, ClfA on S. aureus strain 49 Europe cells (Staphylococcus aureus strain 49); experiment: flow cytometry, 3 hr culture
T5 construct: whole, on cells
Method: as §1

[6] = biological target: T6, ClfA on S. aureus strain Newman cells (wild type) (Staphylococcus aureus strain Newman, UniProt Q53653 40-899); experiment: flow cytometry, 3 hr culture
T6 construct: whole, on cells; also called Newman WT; Newman-WT
T6 sequence (Q53653 40-899): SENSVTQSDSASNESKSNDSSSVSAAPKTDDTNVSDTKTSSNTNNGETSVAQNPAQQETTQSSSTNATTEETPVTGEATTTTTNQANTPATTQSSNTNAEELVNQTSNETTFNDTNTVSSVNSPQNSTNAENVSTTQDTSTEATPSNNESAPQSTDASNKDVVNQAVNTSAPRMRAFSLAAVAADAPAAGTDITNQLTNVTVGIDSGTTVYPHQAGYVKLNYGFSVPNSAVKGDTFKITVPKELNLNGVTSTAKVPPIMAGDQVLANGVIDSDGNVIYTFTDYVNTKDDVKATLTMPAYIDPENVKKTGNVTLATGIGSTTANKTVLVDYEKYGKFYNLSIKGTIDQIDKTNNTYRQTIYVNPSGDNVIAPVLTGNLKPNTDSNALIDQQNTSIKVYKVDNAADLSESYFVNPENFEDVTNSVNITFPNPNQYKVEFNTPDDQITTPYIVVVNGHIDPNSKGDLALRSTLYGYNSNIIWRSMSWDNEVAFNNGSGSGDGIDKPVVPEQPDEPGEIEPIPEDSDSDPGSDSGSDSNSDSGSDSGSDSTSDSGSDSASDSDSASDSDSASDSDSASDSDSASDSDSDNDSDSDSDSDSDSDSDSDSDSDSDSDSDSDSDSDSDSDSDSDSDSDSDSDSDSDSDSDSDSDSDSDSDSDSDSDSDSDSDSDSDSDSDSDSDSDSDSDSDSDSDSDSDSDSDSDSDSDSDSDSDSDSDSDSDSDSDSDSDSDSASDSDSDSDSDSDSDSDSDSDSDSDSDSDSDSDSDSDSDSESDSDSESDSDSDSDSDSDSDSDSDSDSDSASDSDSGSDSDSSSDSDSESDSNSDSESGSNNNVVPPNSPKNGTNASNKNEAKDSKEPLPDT
Method: as §1

[7] = biological target: T7, ClfA on S. aureus strain 189 Japan cells (Staphylococcus aureus strain 189); experiment: flow cytometry, 3 hr culture
T7 construct: whole, on cells
Method: as §1

[8] = biological target: T8, ClfA on S. aureus strain 451 SAL4 cells (Staphylococcus aureus strain 451 Sal 4); experiment: flow cytometry, 3 hr culture
T8 construct: whole, on cells
Method: as §1

[9] = biological target: T9, ClfA on S. aureus strain 206 SAL5 cells (Staphylococcus aureus strain 206 Sal5); experiment: flow cytometry, 3 hr culture
T9 construct: whole, on cells
Method: as §1

[10] = biological target: T10, ClfA on S. aureus strain 67-0 cells (MRSA) (Staphylococcus aureus strain 67-0); experiment: flow cytometry, 3 hr culture
T10 construct: whole, on cells
Method: as §1

[11] = biological target: T11, ClfA on S. aureus strain 397 SAL6 cells (Staphylococcus aureus strain 397 Sal 6); experiment: flow cytometry, 3 hr culture
T11 construct: whole, on cells
Method: as §1

[12] = biological target: T1, ClfA on S. aureus strain 4046 USA cells; experiment: flow cytometry, overnight culture
Method: as §1

[13] = biological target: T2, ClfA on S. aureus strain 203 SAL2 cells; experiment: flow cytometry, overnight culture
Method: as §1

[14] = biological target: T3, ClfA on S. aureus strain 560 SAL 1 cells; experiment: flow cytometry, overnight culture
Method: as §1

[15] = biological target: T4, ClfA on S. aureus strain 203 Singapore …; experiment: flow cytometry, overnight culture
Method: as §1

[16] = biological target: T5, ClfA on S. aureus strain 49 Europe cells; experiment: flow cytometry, overnight culture
Method: as §1

[17] = biological target: T6, ClfA on S. aureus strain Newman cells …; experiment: flow cytometry, overnight culture
Method: as §1

[18] = biological target: T7, ClfA on S. aureus strain 189 Japan cells; experiment: flow cytometry, overnight culture
Method: as §1

[19] = biological target: T8, ClfA on S. aureus strain 451 SAL4 cells; experiment: flow cytometry, overnight culture
Method: as §1

[20] = biological target: T9, ClfA on S. aureus strain 206 SAL5 cells; experiment: flow cytometry, overnight culture
Method: as §1

[21] = biological target: T10, ClfA on S. aureus strain 67-0 cells …; experiment: flow cytometry, overnight culture
Method: as §1

[22] = biological target: T11, ClfA on S. aureus strain 397 SAL6 cells; experiment: flow cytometry, overnight culture
Method: as §1

[23] = biological target: T12, SdrG (UniProt Q9KI13 50-597); experiment: ELISA, SdrG
T12 sequence (looked up): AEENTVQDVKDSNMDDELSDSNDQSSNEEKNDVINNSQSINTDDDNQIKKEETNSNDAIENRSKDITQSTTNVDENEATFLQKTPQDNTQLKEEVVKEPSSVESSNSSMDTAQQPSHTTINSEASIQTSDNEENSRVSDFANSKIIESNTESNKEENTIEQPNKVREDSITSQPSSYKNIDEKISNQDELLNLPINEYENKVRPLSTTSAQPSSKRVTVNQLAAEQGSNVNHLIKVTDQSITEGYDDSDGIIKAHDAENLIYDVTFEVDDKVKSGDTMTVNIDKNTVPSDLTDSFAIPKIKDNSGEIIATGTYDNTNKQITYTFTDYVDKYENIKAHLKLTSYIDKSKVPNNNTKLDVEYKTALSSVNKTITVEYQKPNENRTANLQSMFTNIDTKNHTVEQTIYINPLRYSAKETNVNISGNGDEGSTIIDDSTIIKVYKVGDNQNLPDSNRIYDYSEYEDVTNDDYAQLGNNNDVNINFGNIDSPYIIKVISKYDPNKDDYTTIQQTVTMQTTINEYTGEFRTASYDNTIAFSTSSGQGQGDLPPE

[24] = biological target: T6, ClfA on S. aureus strain Newman cells …; experiment: flow cytometry on S. aureus cells (FIG. 3)

B1: ClfA monoclonal antibody 12-9 (antibody, V domains shown)
VH: QVQLKESGPGLVAPSQSLSITCAISGFSLSRYSVHWVRQPPGKGLEWLGMIWGGGNTDYNSALKSRLSISKDNSKSQVFLKMNSLQTDDTAMYYCARKGEFYYGYDGFVYWGQGTLVTVSA
VL: NIMMTQSPSSLAVSAGEKVTMSCKSSQSVLYSSNQKNYLAWYQQKPGQSPKLLIYWASTRESGVPDRFTGSGSGTDFTLTISSVQAEDLAVYYCHQYLSSYTFGGGTKLEIK
notes: also called F12-9; Mab 12-9
Q: Which “Fluorescence Intensity (Geometric Mean)” value [1] does the source give for B1 here?
A: 27.7

Q: And the “Fluorescence Intensity (Geometric Mean)” value [2]?
A: 16.1

Q: And the “Fluorescence Intensity (Geometric Mean)” value [3]?
A: 28.8

Q: And the “Fluorescence Intensity (Geometric Mean)” value [4]?
A: 22.1

Q: What about the “Fluorescence Intensity (Geometric Mean)” value [5] of the same binder?
A: 7.3

Q: What about the “Fluorescence Intensity (Geometric Mean)” value [6] of the same binder?
A: 30.8

Q: And the “Fluorescence Intensity (Geometric Mean)” value [7]?
A: 11

Q: And the “Fluorescence Intensity (Geometric Mean)” value [8]?
A: 1.1

Q: What about the “Fluorescence Intensity (Geometric Mean)” value [9] of the same binder?
A: 8.8

Q: What about the “Fluorescence Intensity (Geometric Mean)” value [10] of the same binder?
A: 11.2

Q: And the “Fluorescence Intensity (Geometric Mean)” value [11]?
A: 28.9

Q: What about the “Fluorescence Intensity (Geometric Mean)” value [12] of the same binder?
A: 23.5

Q: And the “Fluorescence Intensity (Geometric Mean)” value [13]?
A: 40.4

Q: And the “Fluorescence Intensity (Geometric Mean)” value [14]?
A: 36.1

Q: And the “Fluorescence Intensity (Geometric Mean)” value [15]?
A: 15.4

Q: And the “Fluorescence Intensity (Geometric Mean)” value [16]?
A: 11.3

Q: What about the “Fluorescence Intensity (Geometric Mean)” value [17] of the same binder?
A: 44.3

Q: And the “Fluorescence Intensity (Geometric Mean)” value [18]?
A: 15.7

Q: What about the “Fluorescence Intensity (Geometric Mean)” value [19] of the same binder?
A: 12.9

Q: And the “Fluorescence Intensity (Geometric Mean)” value [20]?
A: 33.5

Q: And the “Fluorescence Intensity (Geometric Mean)” value [21]?
A: 27.6

Q: What about the “Fluorescence Intensity (Geometric Mean)” value [22] of the same binder?
A: 62.1

Q: Does B1 bind [23]?
A: no binding

B2: Chimeric monoclonal antibody 12-9 (antibody, V domains shown)
VH: QVQLKESGPGLVAPSQSLSITCAISGFSLSRYSVHWVRQPPGKGLEWLGMIWGGGNTDYNSALKSRLSISKDNSKSQVFLKMNSLQTDDTAMYYCARKGEFYYGYDGFVYWGQGTLVTVSA
VL: NIMMTQSPSSLAVSAGEKVTMSCKSSQSVLYSSNQKNYLAWYQQKPGQSPKLLIYWASTRESGVPDRFTGSGSGTDFTLTISSVQAEDLAVYYCHQYLSSYTFGGGTKLEIK
notes: also called Chimeric 12-9; recombinant chimeric 12-9
Q: Does B2 bind [24]?
A: binds
